For the experiment, the target named is T1, Recombinant human TNF-α (human, UniProt P01375 77-233).
T1 construct: also called tumor necrosis factor-α; biotinylated TNF-α
Briefly: 35S-labelled free protein with biotinylated TNF-α, biotin capture membrane, phosphorimaging.

T1 sequence (P01375 77-233 limits assumed): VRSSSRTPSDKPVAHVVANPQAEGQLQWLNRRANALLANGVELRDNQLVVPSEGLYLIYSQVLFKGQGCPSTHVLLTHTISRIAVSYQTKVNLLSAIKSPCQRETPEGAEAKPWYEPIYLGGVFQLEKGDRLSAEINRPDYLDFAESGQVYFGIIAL

B1: clone T09.12 (designed binder)
chain: VSDVPRDLEVVAATPTSLLISWRPTSNPPRYYRITYGETGGNSPVQEFTVPPWASTATISGLKPGVDYTITVYAVTAQTGHHLHDKPISINYRT
For orientation: Kd means the concentration at which binding is half-saturated. Turning to B1, the Kd is 0.004 µM.

B2: clone M12.04 (designed binder)
chain: VSDVPGDLEVVAATPTSLLIGWSMTPNWPRYYRIAYGETGGDSPVQEFTVPPWASIAIIGGLKPGVDYTITVYAVTHRDTPISINYRT
With B2, the Kd is 20 µM.

(Values after US20080063651A1 (published 2008).)
